Measurements from article PMC10949841 (2024).
Substitutions are numbered along the chain they refer to. Names and notes keep the numbering of the source.

Biological target: T1, HAdV-C5 hexon labeled with AlexaFluor594 (human adenovirus C5 (HAdV-C5), UniProt P04133 1-952, AlexaFluor594 label (sites not given))
T1 chain: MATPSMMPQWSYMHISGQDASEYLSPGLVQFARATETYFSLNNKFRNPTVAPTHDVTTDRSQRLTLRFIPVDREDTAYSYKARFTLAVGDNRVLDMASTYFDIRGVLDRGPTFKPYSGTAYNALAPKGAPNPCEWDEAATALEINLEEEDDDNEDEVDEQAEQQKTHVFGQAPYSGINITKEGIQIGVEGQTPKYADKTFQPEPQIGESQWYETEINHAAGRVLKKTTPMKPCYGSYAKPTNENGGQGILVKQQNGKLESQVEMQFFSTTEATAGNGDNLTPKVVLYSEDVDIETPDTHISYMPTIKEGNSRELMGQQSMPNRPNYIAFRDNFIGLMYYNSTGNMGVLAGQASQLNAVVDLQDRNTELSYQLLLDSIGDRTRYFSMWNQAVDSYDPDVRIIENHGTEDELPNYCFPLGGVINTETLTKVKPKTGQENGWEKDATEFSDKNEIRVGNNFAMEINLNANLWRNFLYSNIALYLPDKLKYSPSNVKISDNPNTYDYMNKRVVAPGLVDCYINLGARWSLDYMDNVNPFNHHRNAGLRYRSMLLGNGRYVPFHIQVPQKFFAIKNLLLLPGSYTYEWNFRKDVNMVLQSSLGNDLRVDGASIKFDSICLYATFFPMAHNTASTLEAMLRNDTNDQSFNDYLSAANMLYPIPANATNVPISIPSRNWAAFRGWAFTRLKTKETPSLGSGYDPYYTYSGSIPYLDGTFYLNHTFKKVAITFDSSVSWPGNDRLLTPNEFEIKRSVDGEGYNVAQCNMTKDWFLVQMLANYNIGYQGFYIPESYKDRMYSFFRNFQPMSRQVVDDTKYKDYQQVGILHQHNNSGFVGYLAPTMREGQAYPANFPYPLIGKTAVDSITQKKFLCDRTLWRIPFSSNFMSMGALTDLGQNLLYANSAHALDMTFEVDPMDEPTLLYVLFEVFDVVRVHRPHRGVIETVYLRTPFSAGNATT
Experiment: MST

B1: hLF mut3 (K28A) (natural protein)
chain: GRRRSVQWCAVSQPEATKCFQWQRNMRAVRGPPVSCIKRDSPIQCIQAIAENRADAVTLDGGFIYEAGLAPYKLRPVAAEVYGTERQPRTHYYAVAVVKKGGSFQLNELQGLKSCHTGLRRTAGWNVPIGTLRPFLNWTGPPEPIEAAVARFFSASCVPGADKGQFPNLCRLCAGTGENKCAFSSQEPYFSYSGAFKCLRDGAGDVAFIRESTVFEDLSDEAERDEYELLCPDNTRKPVDKFKDCHLARVPSHAVVARSVNGKEDAIWNLLRQAQEKFGKDKSPKFQLFGSPSGQKDLLFKDSAIGFSRVPPRIDSGLYLGSGYFTAIQNLRKSEEEVAARRARVVWCAVGEQELRKCNQWSGLSEGSVTCSSASTTEDCIALVLKGEADAMSLDGGYVYTAGKCGLVPVLAENYKSQQSSDPDPNCVDRPVEGYLAVAVVRRSDTSLTWNSVKGKKSCHTAVDRTAGWNIPMGLLFNQTGSCKFDEYFSQSCAPGSDPRSNLCALCIGDEQGENKCVPNSNERYYGYTGAFRCLAENAGDVAFVKDVTVLQNTDGNNNEAWAKDLKLADFALLCLDGKRKPVTEARSCHLAMAPNHAVVSRMDKVERLKQVLLHQQAKFGRNGSDCPDKFCLFQSETKNLLFNDNTECLARLHGKTTYEKYLGPQYVAGITNLKKCSTSPLLEACEFLRK
  Kd: 125 nM

B2: hLF mut7 (N673A/S678A) (natural protein)
chain: B1 chain with A28K, N673A, S678A
  Kd: 207 nM

B3: hLF mut6 (K277S/K280A/K285S) (natural protein)
chain: B1 chain with A28K, K277S, K280A, K285S
  Kd: 584 nM

B4: hLF mut8 (E687A/K691A) (natural protein)
chain: B1 chain with A28K, E687A, K691A
  Kd: 370 nM

B5: hLF mut2 (R27A) (natural protein)
chain: B1 chain with R27A, A28K
  Kd: 167 nM

B6: hLF mut4 (R30A) (natural protein)
chain: B1 chain with A28K, R30A
  Kd: 207 nM

B7: human lactoferrin (hLF), wild type (natural protein)
chain: B1 chain with A28K
  Kd: 117 nM

B8: hLF mut1 (R24S) (natural protein)
chain: B1 chain with R24S, A28K
  Kd: 247 nM

B9: hLF mut5 (R24S/R27A/K28A/R30A) (natural protein)
chain: B1 chain with R24S, R27A, R30A
  Kd: 602 nM
